{
  "source": "paper doi:10.1101/2022.02.11.480115",
  "about": "(2022)",
  "assay_in_all_cases": "BLI",
  "key": {"[1]": {"molecular_target": "H10 JD13 HA trimer (A/Jiangxi-Donghu/346/2013, H10N8) (influenza A virus …)"}, "[2]": {"molecular_target": "H1 HA (recombinant, Figure 4e) (influenza A virus (H1 subtype, strain …))"}, "[3]": {"molecular_target": "H1 CA09 stem"}, "[4]": {"molecular_target": "H7 AN13 HA trimer (A/Anhui/1/2013) (influenza A virus A/Anhui/1/2013 (H7N9))"}, "[5]": {"molecular_target": "H5 VN04 HA trimer (A/Vietnam/1203/2004) (influenza A virus A/Vietnam/1203/2004 …)"}, "[6]": {"molecular_target": "H6 HA (recombinant, Figure 4e) (influenza A virus (H6 subtype, strain …))"}},
  "data": [
    {"binder": "789-203-3C12 Fab (Fab, V domains shown) VH: QVQLQESGPGLVKPSEILSLTCAVSGGSFSSYCWGWIRQPPGKGLEWIGSICGSGGSNYLNPSLKSRVTLSVDTSKNQFSLILNSVTAADTAVYYCAREGITIFGVVIPRVLDSWGQGAVVTVSS VL: DIQMTQSPSSLSASVGDTVTITCRASQSISSWLAWYQQKPGKAPNLLIYRASTLQSGVPSRFSGSGSGTDFTLTISSLQSEDFATYFCQQSTSSPFTFGPGTKLDIK", "values": [
      {"measurement": "Kd", "setting": "[1]", "value": 81.6, "unit": "nM"},
      {"measurement": "Kd", "setting": "[2]", "value": 6.59, "unit": "nM"},
      {"measurement": "Kd", "setting": "[3]", "value": 5.66, "unit": "nM"},
      {"measurement": "Kd", "setting": "[4]", "value": 534, "unit": "nM"},
      {"measurement": "Kd", "setting": "[5]", "value": 151, "unit": "nM"},
      {"measurement": "Kd", "setting": "[6]", "value": 27.5, "unit": "nM"}
    ]}
  ]
}
